Measurements as given in patent publication US20260028424A1 (GRANULAR THERAPEUTICS, published 2026).

T1: biotinylated cynomolgus CD203c (bio-cyCD203c, Icosagen) (cynomolgus monkey, UniProt A0A2K5TKP4 31-874, biotinylated (site not stated))
T1 construct: Captured on a Biotin CAPture chip for SPR; also called cyno CD203c
T1 sequence: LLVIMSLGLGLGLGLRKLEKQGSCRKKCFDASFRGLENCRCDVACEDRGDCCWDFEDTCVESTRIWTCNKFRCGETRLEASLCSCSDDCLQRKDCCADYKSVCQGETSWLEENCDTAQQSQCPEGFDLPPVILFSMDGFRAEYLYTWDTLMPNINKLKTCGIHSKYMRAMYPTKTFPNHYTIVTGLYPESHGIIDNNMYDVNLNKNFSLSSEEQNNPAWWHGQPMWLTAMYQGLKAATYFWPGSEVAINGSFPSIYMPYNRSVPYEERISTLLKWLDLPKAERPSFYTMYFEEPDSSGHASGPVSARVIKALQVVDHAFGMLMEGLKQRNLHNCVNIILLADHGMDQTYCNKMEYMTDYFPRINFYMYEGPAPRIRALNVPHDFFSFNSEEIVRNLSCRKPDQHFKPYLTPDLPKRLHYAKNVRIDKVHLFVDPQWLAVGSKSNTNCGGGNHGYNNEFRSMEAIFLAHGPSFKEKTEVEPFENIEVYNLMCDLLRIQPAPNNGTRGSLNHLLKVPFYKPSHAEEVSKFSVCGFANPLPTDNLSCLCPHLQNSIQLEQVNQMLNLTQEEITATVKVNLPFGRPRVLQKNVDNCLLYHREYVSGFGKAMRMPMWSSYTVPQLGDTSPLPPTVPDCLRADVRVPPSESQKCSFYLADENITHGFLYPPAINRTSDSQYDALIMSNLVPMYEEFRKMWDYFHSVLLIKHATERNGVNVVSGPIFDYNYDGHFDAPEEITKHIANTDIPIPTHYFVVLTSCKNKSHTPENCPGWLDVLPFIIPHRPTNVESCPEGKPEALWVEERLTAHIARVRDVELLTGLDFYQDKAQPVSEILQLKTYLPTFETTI

T2: biotinylated human CD203c (bio-huCD203c, Acro, Cat. nr. H52H4) (human, UniProt O14638 49-875, limits assumed, biotinylated (site not stated))
T2 construct: Captured on a Biotin CAPture chip for SPR
T2 sequence (looked up): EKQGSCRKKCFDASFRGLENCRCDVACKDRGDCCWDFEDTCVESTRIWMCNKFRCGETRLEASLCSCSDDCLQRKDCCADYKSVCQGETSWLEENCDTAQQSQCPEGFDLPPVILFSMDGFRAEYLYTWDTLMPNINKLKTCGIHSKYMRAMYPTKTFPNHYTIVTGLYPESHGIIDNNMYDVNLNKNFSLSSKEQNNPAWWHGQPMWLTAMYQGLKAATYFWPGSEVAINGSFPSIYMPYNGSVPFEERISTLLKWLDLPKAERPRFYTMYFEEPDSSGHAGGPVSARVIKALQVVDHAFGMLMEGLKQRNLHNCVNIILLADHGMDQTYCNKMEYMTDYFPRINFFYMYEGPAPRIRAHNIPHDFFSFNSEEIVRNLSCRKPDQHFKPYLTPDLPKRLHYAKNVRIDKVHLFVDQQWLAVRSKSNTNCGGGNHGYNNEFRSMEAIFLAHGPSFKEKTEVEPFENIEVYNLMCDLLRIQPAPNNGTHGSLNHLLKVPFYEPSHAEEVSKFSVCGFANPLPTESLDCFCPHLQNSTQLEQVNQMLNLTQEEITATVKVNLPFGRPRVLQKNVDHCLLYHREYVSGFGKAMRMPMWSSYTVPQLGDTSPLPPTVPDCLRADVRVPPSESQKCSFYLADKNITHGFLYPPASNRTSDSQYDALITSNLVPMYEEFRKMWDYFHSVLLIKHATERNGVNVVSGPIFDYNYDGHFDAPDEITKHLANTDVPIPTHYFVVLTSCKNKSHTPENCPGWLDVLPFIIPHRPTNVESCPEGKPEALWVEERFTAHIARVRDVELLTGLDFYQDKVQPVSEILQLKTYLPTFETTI

T3: CD203c (ENPP3) (antigen of the binding assay of FIG. 9B) (Homo sapiens (Human), UniProt O14638 31-875)
T3 construct: not shown: His tag of the recombinant protein
T3 sequence: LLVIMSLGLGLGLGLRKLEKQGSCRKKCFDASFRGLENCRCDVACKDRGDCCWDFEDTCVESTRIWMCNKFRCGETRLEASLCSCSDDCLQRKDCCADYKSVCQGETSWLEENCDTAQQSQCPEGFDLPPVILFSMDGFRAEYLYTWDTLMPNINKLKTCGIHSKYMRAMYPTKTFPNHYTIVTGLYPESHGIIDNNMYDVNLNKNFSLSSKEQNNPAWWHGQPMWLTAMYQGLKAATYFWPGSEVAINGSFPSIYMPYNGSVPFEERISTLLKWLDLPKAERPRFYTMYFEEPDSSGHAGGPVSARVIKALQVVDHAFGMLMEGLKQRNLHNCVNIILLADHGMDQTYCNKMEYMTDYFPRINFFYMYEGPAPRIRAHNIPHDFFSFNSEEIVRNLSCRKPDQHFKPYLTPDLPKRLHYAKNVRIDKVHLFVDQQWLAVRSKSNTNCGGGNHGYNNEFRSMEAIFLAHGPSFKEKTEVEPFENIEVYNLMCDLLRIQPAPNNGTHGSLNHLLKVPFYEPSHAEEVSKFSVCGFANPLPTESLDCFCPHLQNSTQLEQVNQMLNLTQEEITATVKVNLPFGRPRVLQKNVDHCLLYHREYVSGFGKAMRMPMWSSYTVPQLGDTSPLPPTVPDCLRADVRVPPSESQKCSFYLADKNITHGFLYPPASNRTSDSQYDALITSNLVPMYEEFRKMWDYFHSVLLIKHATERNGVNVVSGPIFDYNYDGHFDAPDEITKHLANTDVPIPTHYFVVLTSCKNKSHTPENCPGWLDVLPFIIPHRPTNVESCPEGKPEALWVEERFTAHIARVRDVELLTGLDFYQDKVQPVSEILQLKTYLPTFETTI


Tests used:
[1] = target: T1, biotinylated cynomolgus CD203c …; test: SPR (Biacore), biotinylated CD203c captured on the chip, Fab as analyte 1000 - 7.81 nM; response-versus-concentration fits in FIG. 11A-11C
Experimental: (§1) Biotinylated versions of the CD203c proteins were captured on a BiotinCap chip, and the antibodies injected in-solution in 2-fold serial dilutions. An SPR affinity determination assay was carried out on a BIAcore T20 using the conditions described below: [0212] […] Ligand Capture—biotinylated antigen: bio-huCD203c (Acro, Cat. nr. H52H4) and bio-cyCD203c (Icosagen) at 20 nM and 10 nM, respectively, in 1×HBS-EP+pH 7.4, on flow cell 2 over 1 min at 10 μl/min [0215] […] Complete blank assay runs without analyte antibody were included as blank reference. [0216] […] Regeneration: Baseline levels were restored using the regeneration solutions provided in the Biotin CAPture kit [0218] SPR running buffer: 1×HBS-EP+pH 7.4 (Cytiva; cat. nr. BR100669) [0219] Analysis: Data was analyzed using the Biacore Insight Evaluation Software by the steady state affinity model or the 1:1 binding model. Sensorgrams were referenced to flow cell 1 and the 0 nM concentration cycle.

[2] = target: T2, biotinylated human CD203c …; test: as above
Experimental: as §1

[3] = target: c-Kit (antigen of the binding assay of FIG. 9A) (Homo sapiens (Human), UniProt P10721 26-524); test: plate binding assay on Human c-KIT, A450-A630 (ratio corrected)
c-Kit (antigen of the binding assay of FIG. 9A), sequence (P10721 26-524 limits assumed): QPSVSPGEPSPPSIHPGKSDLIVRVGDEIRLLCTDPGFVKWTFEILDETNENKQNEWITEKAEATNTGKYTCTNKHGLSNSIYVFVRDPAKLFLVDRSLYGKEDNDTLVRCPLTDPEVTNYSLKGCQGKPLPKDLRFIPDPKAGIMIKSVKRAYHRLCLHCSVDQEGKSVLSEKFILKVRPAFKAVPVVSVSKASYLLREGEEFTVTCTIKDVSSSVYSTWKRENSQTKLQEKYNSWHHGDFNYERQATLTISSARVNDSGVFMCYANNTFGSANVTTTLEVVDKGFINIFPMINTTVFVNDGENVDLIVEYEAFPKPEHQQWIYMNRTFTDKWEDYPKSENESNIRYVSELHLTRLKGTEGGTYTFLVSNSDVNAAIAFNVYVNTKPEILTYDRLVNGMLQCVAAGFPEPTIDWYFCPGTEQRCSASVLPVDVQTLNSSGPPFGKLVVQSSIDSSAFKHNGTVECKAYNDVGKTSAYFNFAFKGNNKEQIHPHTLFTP

[4] = target: T3, CD203c (ENPP3) (antigen of the binding …); test: plate binding assay on Human ENPP3, A450-A630 (ratio corrected)

Kd [1] [nM] | Kd [2] [nM] | EC50 (read off the curve) [3] [µg/mL] | binding result [4] | Binder
387 | 705 | – | – | 1.27-Fab (Fab, V domains shown) VH: EVQLVQSGAEVKKPGESLKISCKGSGYRFTSYWIGWVRQMPGKGLEWMGIIYPGDSDTRYSPSFQGQVTISADKSISTAYLQWSSLKASDTAMYYCARKDYYYYAMDVWGQGTTVTVSS VL: DIQMTQSPSSLSASVGDRVTITCRASQGIRTNLAWFQQKPGKAPKSLIYAASSLQSGVPSRFSGSGSGTDFTLTISSLQPEDFATYYCQQYNSYPRTFGGGTKVEIK
– | – | ~0.1 | no binding (tested: 200 µg/ml) | bispecific pair with alternative common light chain VL3: MH1 VH / 2.14_1 VH / VL3 (bispecific antibody, V domains shown) VH 1: QVQLVQSGAEVKKPGASVKVSCKASGYTFTDYYMNWVRQAPGQGLEWMGRIYPGSGNTYYAQKFQGRVTMTRDTSTSTVYMELSSLRSEDTAVYYCARGVYYYDYWGQGTLVTVSS VH 2: QVQLQESGPGLVKPSQTLSLTCTVSGGSISSGGYYWSWIRQHPGKGLEWIGIIYYSGSTYYNPSLKSRVTISVDTSKNQFSLKLNSVTAADTAVFYCARVAIVTTIPGGMDVWGQGTTVTVSS VL: EIVLTQSPDFQSVTPKEKVTITCRASQGIRTNLAWYQQKPDQSPKLLIKAASSLQSGVPSRFSGSGSGTDFTLTINSLEAEDAATYYCQQYNSYPRTFGQGTKVEIK
